Measurements published in the nanobody polyreactivity screen of Harvey et al. (2022).

Assay: yeast display, Sf9 membrane polyspecificity reagent, FACS + sequencing; frameworks hold sequencing errors
Method in brief: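 After 36–48 hours of galactose induction, yeast (Saccharomyces cerevisiae BJ5465) displaying a synthetic nanobody library were stained at 4 °C for 1 hour with 10% biotinylated, detergent-solubilized Sf9 membrane reagent. Streptavidin microbeads enriched the stained cells before FACS sorting into low and high (top ~1%) gates on anti-HA and streptavidin fluorescence. Each clone's polyreactivity label reflects its gate of origin.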
With “QVQLEESGGGLDQAGVSLRLSCAASGRTFPSNTMGWYRQAPGKERELVAAISWRGGSTYYADSVKGRFTITRDNAKKTVYLQMNSLKPEDTAVYYCNTLTKAYRSKSYYEWGHGTQVTVSS” the “polyreactivity (PSR sort gate)” value was “high polyreactivity”.
For “QVQLEESGGGLFQAGGSLRLSCAASGRIFYGYAMGWSRQAPGKEMELVAAISSSGGSTYYADSVKGRFTISRDNAKNTVYLQRNSLKPEDTAVYYCNAKRYRPGYWYDYWGQGTQVTVSS”, the “polyreactivity (PSR sort gate)” value was “high polyreactivity”.
With “QVQLEESGGGLFQAGGSLRLSCAASGSTIFSNAMGWYRQAPGKAREVVAAITSDGGTYYADSVKGRFTISRDNAKKTVYLQMNSLKPEDTAVYYCNVGSFTGHSYGFGYWGQGTQVTVSS” the “polyreactivity (PSR sort gate)” value was “low polyreactivity”.
With “QVQLEESGGGLVHAGGSLRLSCAASGSTFRPYAMGWYRQAPGKERELVAAIRKIGGRTYYADSVKGRFTISRDNAKNTVYLQMNSLKPEDTAVYYCNKRIGGGVHAYNYWGQGTQVTVSS” the “polyreactivity (PSR sort gate)” value was “low polyreactivity”.
With “QVQLEESGGGLVKEGGSLRLSCAASGSIFPINAMGWYRQAPGKERELVAAINGSGSTKYADSVKGRFTISRDNAKNTVYLQMNSLKPEDTAVYYCSTRGLRWAKYGYWGQVTQVTVSS” the “polyreactivity (PSR sort gate)” value was “high polyreactivity”.
In the case of “QVQLEESGGGLVLAGGSLRLSCAAAGSTFVTNDMGWYRQAPGKERELGAAISVGGRTSYADSVKGRFTISRDNAKNTVYLQMNSLKPEESAVDYCAAQYSYTYWGQGTQVTVSS”, the “polyreactivity (PSR sort gate)” value is reported as “low polyreactivity”.
With “QVQLEESGGGLVQAGASLRLSCAASGFIFTSYAMGWYRQAPGKEREFVAASSRRGGSTYYADSVKGRFTISRDNAKNTVYLQMNILKPEYTAVYYCAADPKQHAGYEYWGQGTQVTVSS” the “polyreactivity (PSR sort gate)” value was “high polyreactivity”.
For “QVQLEESGGGLVQAGGRLRLSCAASGFIFWGNAMGWYRQAPGKERELVAGIRSLGGTTSYEDSVKGRFTISRDNAKNSVYLQINSLKPEDTAVYSCAAGYVAEFDYWGQVTQVTVSS”, the “polyreactivity (PSR sort gate)” value was “low polyreactivity”.
For “QVQLEESGGGLVQAGGRLRLSCAASGIISAHYAMGWYRQAPGKERELVAAISSSGGSTYYADSVKGRFTISRDNAKNTVYLQMNSLKPEDTAVYYCNAEFYWGYDYWGQGTQVTVSS”, the “polyreactivity (PSR sort gate)” value was “low polyreactivity”.
In the case of “QVQLEESGGGLVQAGGSHRLSCAASGFIFDRNAMGWYRQAPGKERELVAAITRSGGNTYYADSVKGRFTISRDNAKNTVYLQMNSLKPEDTAVYYCAKDVIQWSVSASYRFGYWGQGTQVTVSS”, the “polyreactivity (PSR sort gate)” value is reported as “high polyreactivity”.
For “QVQLEESGGGLVQAGGSLPLSCAASGFIFGRYAMGWYRQAPGKEREFVASISWSGGSTYYADSVKGRFTISRDNAKNTVYLQMNSLKPEDTAVYYCAAYVRKDRSRGLYGYWGQGTQVTVSS”, the “polyreactivity (PSR sort gate)” value was “high polyreactivity”.
In the case of “QVQLEESGGGLVQAGGSLRFSCAASGITFDQNAMGWYRQAPGKEREFVAAISVSGGRTYYADSVKGPFTISRDNAKNSVYLQLNSLKPDDSAVYYCNADYAFYYPLEPLDVGYDYWGQGTQVTVSS”, the “polyreactivity (PSR sort gate)” value is reported as “high polyreactivity”.
For “QVQLEESGGGLVQAGGSLRFSCAASGSIFDYNAMGWYRQAPGTERELVAAITYSGGTTYADSVKGRFTISRDNAKNTVYLQMNSLKPEDTAVDYCAATSYDRFAYYYWGQGTQVTVSS”, the “polyreactivity (PSR sort gate)” value was “low polyreactivity”.
With “QVQLEESGGGLVQAGGSLRFSCAASGSTFLHYAMGWYRPAPGQERALVAAITWSGGSTYYADSVKGRFTISRDNAKNTVSLQMNSLKPEDTAVYYCAADLTYLYDYHYDYWGQGTQVTVSS” the “polyreactivity (PSR sort gate)” value was “low polyreactivity”.
With “QVQLEESGGGLVQAGGSLRISCAASGRIFRKYTMGWYRQAPGKERELVAAITGTGGSTYYADSVKGRFTISRDNAKNTVYLQMNSLKPVVTAVYYCAADYSARYGYWGQGTQVTVSS” the “polyreactivity (PSR sort gate)” value was “high polyreactivity”.
In the case of “QVQLEESGGGLVQAGGSLRISSAASGSTLGSNAMGWYRQAPGKEMELVAAITWSGGTTYYADSVKGRFTIARDNPKNTVSLQMNSLKPEDTAVYYCATGQSVIYRYEYWGQGTQVTVSS”, the “polyreactivity (PSR sort gate)” value is reported as “low polyreactivity”.
With “QVQLEESGGGLVQAGGSLRLICAASGGIFQKYAMGWYRQAPGKERELVASNNTGVRTYYADSVKGRFTISRDNAKNTVYLQMNSLKPEDTAVYYCNADGGGPRKYTRTRGHWGQGTQVTVSS” the “polyreactivity (PSR sort gate)” value was “low polyreactivity”.
For “QVQLEESGGGLVQAGGSLRLICAASGSIFDSNSMGWYRQAPGKVRELVAGISRGGGSTYYADSVKGRFTISRDNAKNTVYLQMNSLKPEDTAVYYCNVLTYRWLYARRYEYWGQGTQVTVSS”, the “polyreactivity (PSR sort gate)” value was “high polyreactivity”.
For “QVQLEESGGGLVQAGGSLRLICAATGSIFSFYAMGWYRQAPGKEREWVAAIDVSGGSTYYADSVKGRFTISRDNAKNTVYLQMNSLKPEDTAVYYCAKDVRDQYDYWGQGTQVTVSS”, the “polyreactivity (PSR sort gate)” value was “low polyreactivity”.
With “QVQLEESGGGLVQAGGSLRLSCAAAGINFTYYAMGWYRQAPGKERELVAAISYRGGSTYADSVKGRFTISRDNAKNTVYLPMNSLKPEDTAVYYFAADSPVPDSGEGYWGQGTQVTVSS” the “polyreactivity (PSR sort gate)” value was “high polyreactivity”.
In the case of “QVQLEESGGGLVQAGGSLRLSCAASGFIFFAYAMGWYRQAPGKERELVAAISRTGGSTYYADSVKGRFTISRDNAKNTVYLLMNSLKPEDTAVYYCAAVVSRTYQWWTYDYWGQGTQVTVSS”, the “polyreactivity (PSR sort gate)” value is reported as “high polyreactivity”.
With “QVQLEESGGGLVQAGGSLRLSCAASGFIFFKYAMGWYRQAPGKEREFVAAISKSGTSTYYADSVKGRFTISRDNAKNTVYLQMNSLKPEDTAVYYCAKRYLTRYKGYYYWGQGTQVTVSS” the “polyreactivity (PSR sort gate)” value was “high polyreactivity”.
For “QVQLEESGGGLVQAGGSLRLSCAASGFIFGYYGMGWYRQAPGKERELVAAITDGGSTTYADSVKGRFTISRDNAKNTVYLQMNSLKPEDTAVYYCNAEAGGFDYYGKTYRYGDYWGQGTQVTVSS”, the “polyreactivity (PSR sort gate)” value was “low polyreactivity”.
For “QVQLEESGGGLVQAGGSLRLSCAASGFIFVRNAMGWYRQAPGKERELVAAITRSGGSTSYADSVKGRFTISRDNAKNTVYLQMNSLKPEDTAVYYCAPQYGYWGQGTQVTVSS”, the “polyreactivity (PSR sort gate)” value was “high polyreactivity”.
In the case of “QVQLEESGGGLVQAGGSLRLSCAASGFIFYWYAMGWYIKAPGKERELVAAITRSGGRTYYADSVKGRFTFSRDNAKNTVYLQMNRLKPEDTAVYYCNAGYWLSPYKFGYWGQGTQVTVSS”, the “polyreactivity (PSR sort gate)” value is reported as “high polyreactivity”.
For “QVQLEESGGGLVQAGGSLRLSCAASGFIYRGYTMGWYRTAPGKERELVAGITSTASTNYADSVKGRFTISRDNAKNTVYLQMNSLKPEDTAVYYCAAGVPYRLRNRYYYWGQGTQVTVSS”, the “polyreactivity (PSR sort gate)” value was “high polyreactivity”.
In the case of “QVQLEESGGGLVQAGGSLRLSCAASGFSFVTYPMGWYRQAPGKEREFVATISRSGGSTYYADSVKGRFTISRDNAKNTVYLQMNSLKPEDTAVYYCAARGRYPYRYGYWGQGTQVTVSS”, the “polyreactivity (PSR sort gate)” value is reported as “high polyreactivity”.
For “QVQLEESGGGLVQAGGSLRLSCAASGFTFELYAMGWYRQAPGKVRELVAAISYSGGSTYYADSVKGRFTISRDNAKNTVYLQMNSLKPEDTAVYYCNAVYWPYSGPVYTIVDYWGQGTQVTVSS”, the “polyreactivity (PSR sort gate)” value was “low polyreactivity”.
In the case of “QVQLEESGGGLVQAGGSLRLSCAASGFTFGSYAMGWYRQAPGKEREFVAAISLGGARTYYADSVKGRFTMSRDNAKNTVYLQMHSLKPEDTAVYYGNARGIGRSTKWSSRDYWGQGTQVTVSS”, the “polyreactivity (PSR sort gate)” value is reported as “high polyreactivity”.
For “QVQLEESGGGLVQAGGSLRLSCAASGFTFNPYTMGWYRQAPGKERELVAAITSSGGSTYYADSVKGRFTISRDNAKNTVYLQMNSLKPEDTAVYYCAKLRTASIYDYWGQGTQVTVSS”, the “polyreactivity (PSR sort gate)” value was “low polyreactivity”.
With “QVQLEESGGGLVQAGGSLRLSCAASGFTFPWNVMGWYRQAPGKEREFVAAISKSAGSTFYADSVKGRFTISRDNAKNTVYLQMNSLKPEDTAVYYCAKPRVPGVHVQEMYYWGQGTQVTVSS” the “polyreactivity (PSR sort gate)” value was “low polyreactivity”.
With “QVQLEESGGGLVQAGGSLRLSCAASGFTFRLYAMGWYRHAPGKERELFARISSGGSTHYADSVKGRFTISRDNAKNTVFLQMNSLKPEDTAVYYCAAGWGYWRSYGSWGQGTQVTFSS” the “polyreactivity (PSR sort gate)” value was “high polyreactivity”.
For “QVQLEESGGGLVQAGGSLRLSCAASGFTFRRYAMGWYRQAPGKERELVAAITRSGSSTYYADSVKGRFTISRDNAKNTVYLQMNSLKPEDTAVYYCARYHLRPTDGFDYWGQGTQVTVSS”, the “polyreactivity (PSR sort gate)” value was “high polyreactivity”.
With “QVQLEESGGGLVQAGGSLRLSCAASGFTFSGYDMGWYRQAPGKERELVAGISSGGVSTTYADSVKGRFTISRDNAKNTVYLQMNSLKPEDTAVYYCNAEWTSFDWGQGTQVTVSS” the “polyreactivity (PSR sort gate)” value was “low polyreactivity”.
With “QVQLEESGGGLVQAGGSLRLSCAASGFTFSGYDMGWYSPAPGKERELVAGISYGGVSTTYADSVKGRFTISRDNAKNTVYVQMNSLKPEDTAVYYCNAEWTSFDWGQGTQVTVSS” the “polyreactivity (PSR sort gate)” value was “low polyreactivity”.
In the case of “QVQLEESGGGLVQAGGSLRLSCAASGGTFTNYAMGWYRQAPGTERELVAAITDSGATTYYADSVKGRFTISRDNAKNTVYLQMNRLKPEDNAVYYCNAELDLYTDFDYWGQGTQVTESS”, the “polyreactivity (PSR sort gate)” value is reported as “low polyreactivity”.
With “QVQLEESGGGLVQAGGSLRLSCAASGIIFAYYAMGWYRQAPGKERELVGTNYADSVKGRFTISRDNAKNTVYLQMNSLKPEDTAVYYCAVVGGEFSSYGYWGQGTLVTVSS” the “polyreactivity (PSR sort gate)” value was “low polyreactivity”.
In the case of “QVQLEESGGGLVQAGGSLRLSCAASGIIFSYYDMGRYRQAPGKERELVATITRKGGSTYYADTVKGRFTISRDYAKNTVYFQMNSLKPEDTAVYYCAAQTTVYIYDYWGQGSQVTVSS”, the “polyreactivity (PSR sort gate)” value is reported as “low polyreactivity”.
For “QVQLEESGGGLVQAGGSLRLSCAASGIIFWWYAMGWYRQAPGKERELVAAISGTGGSTYYADSVKGRFTISRDNAKNTVYLQINRLKPEDTAVYFCAARGKSSSFYDYDYWGQGTQVTVSS”, the “polyreactivity (PSR sort gate)” value was “low polyreactivity”.
In the case of “QVQLEESGGGLVQAGGSLRLSCAASGITFPRYAMGWYRQAPGKERELVAAIRWNGGSTYYADSVKGRFTISRDNAKNTVYLQMNSLKPEDTAVYYCAARKDPSFSSFGYGYWGQGTQVTVSS”, the “polyreactivity (PSR sort gate)” value is reported as “high polyreactivity”.
With “QVQLEESGGGLVQAGGSLRLSCAASGITFRAYAMGWYRQAPGKERELVAAITGRGGRTYYADSVKGRFTISRDNAKNTVYLQMNSLKPEDPAVYYCNAYLWRVNQTYDYWGQGTQVTVSS” the “polyreactivity (PSR sort gate)” value was “high polyreactivity”.
